Test [1] addresses T1, Human semaphorin 3A (Sema3A) (human, UniProt Q14563 21-771).
T1 construct: also called human Sema3A; HuSema3A
T1 sequence: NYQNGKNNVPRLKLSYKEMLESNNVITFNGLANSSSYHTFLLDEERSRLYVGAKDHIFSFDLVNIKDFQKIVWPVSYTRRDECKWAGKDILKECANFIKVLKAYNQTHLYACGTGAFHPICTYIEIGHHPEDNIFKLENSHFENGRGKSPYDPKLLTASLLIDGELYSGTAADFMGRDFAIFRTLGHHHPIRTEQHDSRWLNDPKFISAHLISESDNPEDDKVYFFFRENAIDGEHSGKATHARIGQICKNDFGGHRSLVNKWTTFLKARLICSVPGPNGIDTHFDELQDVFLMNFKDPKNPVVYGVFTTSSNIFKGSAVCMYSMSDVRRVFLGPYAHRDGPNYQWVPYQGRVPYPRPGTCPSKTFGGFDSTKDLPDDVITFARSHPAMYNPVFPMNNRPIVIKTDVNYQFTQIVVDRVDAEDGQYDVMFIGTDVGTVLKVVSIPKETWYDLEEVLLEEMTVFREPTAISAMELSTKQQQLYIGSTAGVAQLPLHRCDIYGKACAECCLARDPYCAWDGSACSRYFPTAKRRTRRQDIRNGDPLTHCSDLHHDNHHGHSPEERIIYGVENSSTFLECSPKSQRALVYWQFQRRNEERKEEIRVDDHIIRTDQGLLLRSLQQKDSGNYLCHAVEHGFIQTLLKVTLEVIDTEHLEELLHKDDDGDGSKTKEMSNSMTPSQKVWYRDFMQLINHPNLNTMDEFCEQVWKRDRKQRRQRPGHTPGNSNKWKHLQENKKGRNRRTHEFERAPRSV
As to the kind of experiment: SPR (BioRad GLM chip), antibody captured on goat anti-human IgG, Sema3A as analyte, 1:1 Langmuir fit.

The target of test [2] is T2, Rabbit Sema3A (rabbit, UniProt G1T285 21-770).
T2 construct: Construct not described
T2 sequence: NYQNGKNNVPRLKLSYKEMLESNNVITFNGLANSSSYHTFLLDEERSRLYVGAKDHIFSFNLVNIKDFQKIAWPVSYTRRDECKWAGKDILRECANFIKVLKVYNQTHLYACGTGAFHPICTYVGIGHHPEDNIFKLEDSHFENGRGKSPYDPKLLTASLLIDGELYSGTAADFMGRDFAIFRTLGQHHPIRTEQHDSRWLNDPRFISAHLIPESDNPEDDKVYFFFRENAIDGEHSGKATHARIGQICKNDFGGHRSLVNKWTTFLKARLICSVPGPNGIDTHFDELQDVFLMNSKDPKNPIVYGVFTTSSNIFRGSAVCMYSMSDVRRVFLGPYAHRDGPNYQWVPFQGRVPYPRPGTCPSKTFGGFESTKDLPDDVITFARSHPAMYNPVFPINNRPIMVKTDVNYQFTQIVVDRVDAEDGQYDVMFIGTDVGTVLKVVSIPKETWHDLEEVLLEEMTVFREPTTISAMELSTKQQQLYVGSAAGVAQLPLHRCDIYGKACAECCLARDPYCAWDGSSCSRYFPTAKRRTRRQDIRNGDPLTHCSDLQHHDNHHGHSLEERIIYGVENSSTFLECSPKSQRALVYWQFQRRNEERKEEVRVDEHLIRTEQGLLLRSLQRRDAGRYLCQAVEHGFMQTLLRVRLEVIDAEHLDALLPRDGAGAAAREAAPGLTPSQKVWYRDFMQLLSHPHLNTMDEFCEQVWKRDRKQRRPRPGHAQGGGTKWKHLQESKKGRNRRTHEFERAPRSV
Described as above.

The target in test [3] is T3, Mouse Sema3A (mouse, UniProt O08665 21-772, limits assumed).
T3 construct: Construct not described
T3 sequence (looked up): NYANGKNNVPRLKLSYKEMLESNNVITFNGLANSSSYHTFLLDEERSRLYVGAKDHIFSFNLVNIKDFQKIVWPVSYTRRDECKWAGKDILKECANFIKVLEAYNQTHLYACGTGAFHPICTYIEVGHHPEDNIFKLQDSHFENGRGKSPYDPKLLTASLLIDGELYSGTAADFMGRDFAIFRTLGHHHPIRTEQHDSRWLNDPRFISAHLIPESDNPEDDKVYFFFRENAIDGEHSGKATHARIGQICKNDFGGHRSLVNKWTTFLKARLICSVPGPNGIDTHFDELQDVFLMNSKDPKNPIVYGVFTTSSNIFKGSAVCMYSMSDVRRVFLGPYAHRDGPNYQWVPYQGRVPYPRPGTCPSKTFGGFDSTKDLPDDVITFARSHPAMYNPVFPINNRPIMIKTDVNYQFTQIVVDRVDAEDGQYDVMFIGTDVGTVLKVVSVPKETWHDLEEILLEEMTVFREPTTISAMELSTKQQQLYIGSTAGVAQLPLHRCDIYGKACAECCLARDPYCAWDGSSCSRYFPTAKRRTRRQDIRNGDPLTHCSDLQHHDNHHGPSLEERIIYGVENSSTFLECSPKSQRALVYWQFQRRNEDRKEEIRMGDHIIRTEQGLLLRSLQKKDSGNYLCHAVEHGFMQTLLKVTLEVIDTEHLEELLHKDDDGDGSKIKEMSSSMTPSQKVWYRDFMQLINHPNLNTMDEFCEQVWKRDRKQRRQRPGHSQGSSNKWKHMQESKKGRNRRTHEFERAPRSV
The description is as above.

The target of test [4] is T4, Rat Sema3A (rat, UniProt Q63548 21-772, limits assumed).
T4 construct: Construct not described
T4 sequence (looked up): T3 sequence (looked up) with E102K, I455V, P559H, M604V, I669T
Described as above.

Test [5] deals with Cynomolgus Sema3A (cynomolgus). The description is as above.
The target of test [6] is Cynomolgus Sema3A (cynomolgus). As to the kind of experiment: SPR (GLM sensorchip), antibody captured on Human Fab Binder, Sema3A as analyte, 1:1 Langmuir fit.
For test [7], the target named is T1, Human semaphorin 3A (Sema3A). The description is as above. As to the method: (§1) The running buffer for this experiment and all dilutions (except where stated) were done in PBS-T-EDTA with 0.01% Tween20 [100 ul of 100% Tween20 was added to 2L of PBS-T-EDTA to make final Tween 20 concentration of 0.01%]. The GLM sensorchip was normalized and pre-conditioned as per the manufacturer's recommendations. The sensorchip was activated with equal mixture of EDC/s-NHS in the horizontal direction for 300 sec at a flow rate of 30 μl/min and immobilized with Human Fab Binder (10 μg/ml in 10 mM acetate pH 5.0) in the horizontal direction for 300 sec at a flowrate of 30 μl/min resulting in ˜6739-7414 RU of Human Fab Binder on the surface. The sensorchip was deactivated with 1M ethanolamine HCl in the horizontal direction for 300 sec at a flowrate of 30 μl/min. The sensorchip was stabilized with 18 sec of 10 mM glycine, pH 2.1 at a flowrate of 100 μl/min 1 time horizontally and 1 time vertically.
(§2) The inventors tested an exemplary antibody according to the invention (clone I). Said antibody (0.5 μg/ml) was captured on the Human Fab Binder surface vertically for 300 sec at a flowrate of 25 μl/min resulting ˜180 RU capture level. The baseline was stabilized by injecting PBS-T-EDTA for 60 sec at a flowrate of 40 μl/min horizontally. The analyte was injected horizontally over the captured antibody for 600 sec at a flowrate of 40 μl/min and a dissociation for 7200 sec. The concentrations of the analytes were 0 nM, 0.625 nM, 1.25 nM, 2.5 nM, 5 nM, and 10 nM. The surface was regenerated by injecting 10 mM glycine, pH 2.1 for 18 sec at a flowrate of 100 μl/min one time horizontally and one time vertically. PBS-T-EDTA was injected for 60 sec at a flowrate of 25 μl/min one time vertically.
(§3) The interspot (interactions with sensor surface) and blank (PBS-T-EDTA with 0.01% Tween20 or 0 nM analyte) were subtracted from the raw data.

For test [8], the target named is T2, Rabbit Sema3A. The test is described as above. As to the method:
as §1, §2, §3

Test [9] addresses T3, Mouse Sema3A. Described as above. Here is the method:
as §1, §2, §3

Test [10] concerns the target T4, Rat Sema3A. The test is described as above. As to the method:
as §1, §2, §3

In test [11] the target is T1, Human semaphorin 3A (Sema3A). As to the kind of experiment: SPR (BioRad GLM chip), antibody captured on anti-human Fab antibody, human Sema3A as analyte, 1:1 Langmuir fit. Here is the method: A high surface density of anti-human Fab antibody (GE Healthcare) was immobilized over a GLM chip (BioRad) via direct amine coupling over 6 horizontal channels according to the BioRad manufacturer's manual.
The antibody of the invention (clone 1) and the Chiome antibodies were captured over the anti-human Fab antibody surface over 5 of 6 vertical channels with a minimum surface density for the kinetic binding assay. Human Sema3A was prepared in PBS-T-EDTA buffer (BioRad) at concentrations of 100, 50, 25, 12.5, 10, 6.25, 5, 2.5, 1.25, 0.625 and 0 nM. A PBS-T-EDTA buffer injection was used as a double reference for the kinetic data analysis. Each of the human Sema3A solutions and PBS-T-EDTA buffer were injected simultaneously over the 6 horizontal channels for 10 min at a flow rate of 40 μL/min followed by 2 hr dissociation phase. The surfaces were regenerated by an 18 sec injection of 10 mM pH 2.1 glycine HCl (GE Healthcare) at a flow rate of 100 μL/min followed by an injection of 60 sec PBS-T-EDTA at a flow rate of 25 μL/min.

Changes are numbered by the printed parent chain.

Experimental findings from patent US20260078175A1 (Boehringer Ingelheim, published 2026) are described below.

B1: Antibody of the invention (clone I) (antibody, human IgG1, kappa, L234A L235A, V domains shown)
VH: EVQLVESGGGLVQPGGSLRLSCAASGFTFSSYYMSWVRQAPGKGLEWVSTIIKSGGYAYYPDSVKDRFTISRDNSKNTLYLQMSSLRAEDTAVYYCVRGGQGAMDYWGQGTTVTVSS
VL: EIVLTQSPATLSLSPGERATLSCRASQSIGDYLHWYQQKPGQAPRLLIKYASQSISGIPARFSGSGSGTDFTLTITSLEPEDFAVYYCQQGYSFPYTFGGGTKLEIKR
notes: also called clone 1; anti-Sema3A antibody of the invention
Regarding B1, the Kd stood at 0.0347 nM in test [1]; 0.0401 nM in the test with Rabbit Sema3A [2]; 0.035 nM with Mouse Sema3A [3]; 0.0235 nM in the test with Rat Sema3A [4]; 0.035 nM in [5]; 0.028 nM in test [6]. For the same molecule, the dissociation constant Kd in test [7] came to 0.029 nM; with Rabbit Sema3A [8], 0.042 nM; with Mouse Sema3A [9] it was 0.027 nM; in the test with Rat Sema3A [10], 0.027 nM; in [11], 0.032 nM.

One may read the Kd as the free concentration of one partner at which half of the binding sites on the other are occupied at equilibrium, for simple one-to-one binding. The low end stands for higher affinity, the high end for lower affinity.
